Assay results reported in the RNAGym collection of RNA variant scans (doi:10.1073/pnas.2313332121).

B1: TPR t1 (parent)
chain: GACCAAUCUGCCCUCAGAGCUCGAGAACAUCUUCGGAUGCAGAGGAGGCAGGCUUCGGUGGCGCGAUAGCGCCAACGUCCUCAACCUCCAAUGCAUCCCACCACAUGAUGAUGCCUGAAGAGCCUUGGUUUUUUG

Variants of: B1
Assay: polymerase ribozyme fitness, log enrichment relative to wild type (log ratio); higher = more active; in vitro selection for triplet polymerase activity
Summary of the method: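 In triplicate, a single round of in vitro selection was run on each mutant library, PCR-built and transcribed, covering one subunit of a heterodimeric triplet polymerase ribozyme. Frozen incubation at −7 °C followed annealing with a biotinylated primer, partner subunit and triplets, and extended constructs were then gel-excised, streptavidin-captured and taken through RT-PCR. Fitness is the logarithm of genotype enrichment over wild-type enrichment, from inverse-variance-weighted replicate averages of Illumina-sequenced inputs and outputs. […] only genotypes with ≥10 input reads and ≥1 read per output were kept.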

Row | Variant | polymerase ribozyme fitness (log ratio)
1 | A27U A29C | -4.78
2 | A27C C82U C124A | -0.986
3 | A29G C72G C80G A105C C123G | -7.14
4 | A26U C62A A83U G117A | -6.44
5 | C28A C70U | -4.86
6 | A29G A50G C99G A105G C124A | -7.1
7 | C28U G52C C56G | -3.11
8 | C28G A46U | -3.8
9 | C28U A29G | -5.97
10 | A29G G36A G69A G71U C104U | -6.16
11 | C28U C53U U92C U106A U133A | -3.09
12 | C28G C72A C102G G107A | -7.59
13 | A27C C124G | -0.608
14 | A27C C94U | -3.16
15 | A29G G35C G45A A100G U112C U116C | -7.03
16 | C28G G61A | -2.51
17 | A27C C86G U133A | -5.16
18 | C28U C72G G110C | -1.52
19 | A27U C86A | -3.77
20 | A27U C86G | -3.66
21 | A27C C53A C94G | -4.6

Row | Variant | polymerase ribozyme fitness (log ratio)
22 | C28U G120A | -1.19
23 | A26U C124U | -2.17
24 | A26G C94G | -3.05
25 | A27G A41U C64U | -3.32
26 | A26G G60C | -3.07
27 | C28A U54A G71U G110U | 1.85
28 | A27U C70U C73G A84G C89G C114G | -6.4
29 | C28G G48A C72U | -3.41
30 | A27G C89A | -3.54
31 | A27U G63U U96G G127C | -6.08
32 | A27G U32G C62U U78G G120C | -6.42
33 | A29G C104A | -2.84
34 | C28U C124U | -0.485
35 | C28U C124A | 0.0271
36 | C28U C82A | -2.3
37 | A27C C53U C72U U125A | -3.83
38 | A27G U55A G77C A95C | -4.8
39 | A26U G42U G69C C72A C79U G110C | -7.46
40 | A26G G48A G63U C101G | -4.73
41 | C28U A46G U129G | -2.5
42 | C28G U59G U81C G117C | -6.32

Row | Variant | polymerase ribozyme fitness (log ratio)
43 | A29G A50U C73A | -2.36
44 | C28U | -1.69
45 | C28G | -2.31
46 | C28A | -3.83
47 | A27G A46U G77U U78A | -3.31
48 | C28U U133G | -1.83
49 | A27U A43G | -5.43
50 | A27U A43U | -5.8
51 | C28A G51U G60C C80U G110U G117A | -2.3
52 | C28G C82U | -2.1
53 | A27U G135U | -4.15
54 | C28G G48A A83C A84C | -3.22
55 | A27C C49U G61U U92C | -6.24
56 | A29G A46G | -1.09
57 | A27G U106A | -2.32
58 | C28G C123U | -0.975
59 | A27G | -1.52
60 | A27C | -2.85
61 | A27U | -2.89
62 | A27U C73A | -3.09
63 | C28A A50G C62U G65U G69U U112A | -3.65

Row | Variant | polymerase ribozyme fitness (log ratio)
64 | A26G G51U | -5.11
65 | A27C G71A U116C | -4.74
66 | C28G G60U | -2.56
67 | C28G G57C G63C C73U A83C C123A | -5.12
68 | A27G U96G C99G U129A | -6.24
69 | C28U G71A G77A C114A | -6.98
70 | C28G U78C | -2.53
71 | A29C C56G C82A U87C C89A A108G C124A | -7.12
72 | A27U G77U U78G A111C | -6.32
73 | C28U C82A C114U | -3.98
74 | A27U G61A | -2.77
75 | C28U G61A C64U A121C | -4.25
76 | C28A C56U A121G | -2.77
77 | A26G U78C | -2.25
78 | A26U A83U | -2.58
79 | C28A A50C C72U G113A | -3.3
80 | C28U C40A G120C | -2.59
81 | A27U G48U A50U C123U | -2.86
82 | A27U G52A C88U U96A | -4.5
83 | A26G G45A G120C | -1.66
84 | C28G G77U | -3.74
